Where a chain is given by its changes, count along the chain named. Read-outs that look alike come from different tables or passages of the source. Each block holds one binder with its values, some of them ahead of it.
Tests used:
Bovine serum albumin [1] = biological target: T1, Bovine serum albumin (bovine, UniProt P02769 25-607); assay: ELISA on 1% BSA, HEK supernatant, anti-human IgG-HRP, n=1
T1 construct: also called BSA

[2] = biological target: aggregated (oligomeric) P301S 2N4R tau, pHrodo-labelled (human, UniProt P10636 1-758, pHrodo Red maleimide label); assay: cell-based or functional assay
[3] = biological target: monomeric P301S 2N4R tau, pHrodo-labelled (human, UniProt P10636 1-758, pHrodo Red maleimide label); assay: cell-based or functional assay
[4] = biological target: T2, full length recombinant human 2N4R tau (human, UniProt P10636 1-758); assay: SPR SCK, IgG on Protein A, tau in flow
T2 construct: bought from rPeptide; pHrodo Red maleimide-labelled where it stands in uptake assays; also called tau1-441; full length tau

[5] = biological target: T2, full length recombinant human 2N4R tau; assay: SPR MCK, IgG on Protein A, tau in flow at 100 µL/min; on the border of mass transport limitation
[6] = biological target: T2, full length recombinant human 2N4R tau; assay: SPR MCK, IgG on Protein A, tau in flow at 100 µL/min
[7] = biological target: T2, full length recombinant human 2N4R tau; assay: ELISA on 2N4R tau (100 ng/well), HEK supernatant, anti-human IgG-HRP, n=1
Procedure: FIG. 7. A panel of humanised anti-tau IgG bind to full length recombinant 2N4R tau in an ELISA format. Supernatants from HEK cells transiently transfected with each IgG clone were tested at 1:100 for binding to full length recombinant 2N4R tau (solid bars). […] Binding of anti-tau hIgG1 was detected using an HRP-conjugated anti-human secondary antibody and data are shown from a representative experiment (n=1 replicate).
Antigen was removed from wells and the plates were then blocked for 1 hour at RT with 5% dried milk in 1×TBS. Blocking solution was removed, HEK293 cell supernatant (1:100 in 1% BSA/1×TBS) was added to relevant wells, and plates were incubated for 1 hour at RT with gentle shaking. Plates were then washed four times with TBS/0.1% Tween (TBST). Goat anti-human IgG-HRP antibody (Thermo Fisher Scientific, Waltham, MA, USA), diluted 1:2000 in 5% milk/TBS, was added to each well and plates were incubated for 1 hour at RT with gentle shaking before being washed four times with TBST. 3,3′,5,5′-tetramethylbenzidine (TMB) ELISA solution was added to each well and plates were incubated for 15 mins at RT. An equal volume of 1 M sulfuric acid was added to each well and OD was measured at 450 nm.

Bovine serum albumin [8] = biological target: T1, Bovine serum albumin; assay: ELISA on 1% BSA, HEK supernatant, anti-human IgG-HRP, n=1; remark: listed apart in the source
How it was run: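 Wells coated with antigen, blocked 1 h RT in 5% milk/TBS; HEK293 transient-transfection supernatants applied at 1:100 in 1% BSA/TBS for 1 h RT. Bound hIgG1 detected with anti-human IgG-HRP (1:2000), TMB 15 min, acid stop, OD450; single replicate.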

Sequence of monomeric P301S 2N4R tau, pHrodo-labelled (P10636 other isoform, or with tags, fused parts or gaps P301S P301S): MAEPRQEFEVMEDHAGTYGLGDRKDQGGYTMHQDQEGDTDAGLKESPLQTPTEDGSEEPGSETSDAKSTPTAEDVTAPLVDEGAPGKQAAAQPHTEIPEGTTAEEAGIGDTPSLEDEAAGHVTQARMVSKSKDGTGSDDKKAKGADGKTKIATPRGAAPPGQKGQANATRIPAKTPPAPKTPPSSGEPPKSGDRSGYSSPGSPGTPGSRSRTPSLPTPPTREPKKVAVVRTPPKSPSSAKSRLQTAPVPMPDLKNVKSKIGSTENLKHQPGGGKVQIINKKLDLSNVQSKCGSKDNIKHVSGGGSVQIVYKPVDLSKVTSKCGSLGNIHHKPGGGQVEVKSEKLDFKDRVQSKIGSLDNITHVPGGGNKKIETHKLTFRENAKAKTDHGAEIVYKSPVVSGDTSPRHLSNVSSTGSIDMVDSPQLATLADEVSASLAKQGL
Sequence of aggregated (oligomeric) P301S 2N4R tau, pHrodo-labelled (P10636 other isoform, or with tags, fused parts or gaps P301S P301S): as above
T2 sequence (P10636 other isoform, or with tags, fused parts or gaps limits assumed): as the sequence (P10636 other isoform, or with tags, fused parts or gaps P301S P301S) above, with S301P counted along it
T1 sequence (P02769 25-607 limits assumed): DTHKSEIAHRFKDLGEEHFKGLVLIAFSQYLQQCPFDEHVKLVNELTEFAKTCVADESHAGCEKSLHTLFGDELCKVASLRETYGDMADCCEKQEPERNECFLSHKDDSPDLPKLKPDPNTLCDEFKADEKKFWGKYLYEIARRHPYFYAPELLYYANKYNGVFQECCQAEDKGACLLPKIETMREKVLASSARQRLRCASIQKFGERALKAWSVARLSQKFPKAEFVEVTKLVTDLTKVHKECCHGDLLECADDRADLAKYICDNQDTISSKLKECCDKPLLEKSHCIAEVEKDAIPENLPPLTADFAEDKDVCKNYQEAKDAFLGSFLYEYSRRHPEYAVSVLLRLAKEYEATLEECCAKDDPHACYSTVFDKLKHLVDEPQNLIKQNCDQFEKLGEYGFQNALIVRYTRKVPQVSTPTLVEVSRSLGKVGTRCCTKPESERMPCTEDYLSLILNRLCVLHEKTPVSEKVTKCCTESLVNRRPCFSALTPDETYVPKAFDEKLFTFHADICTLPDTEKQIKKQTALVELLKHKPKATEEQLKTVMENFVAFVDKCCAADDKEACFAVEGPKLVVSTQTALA

- inhibition of aggregated tau uptake into human astrocytes [2]: 32.6%
- inhibition of aggregated tau uptake into human iPSC-derived neurons [2]: 65.5%
- inhibition of monomeric tau uptake into human astrocytes [3]: 35.6%
- inhibition of monomeric tau uptake into human iPSC-derived neurons [3]: 81.8%
- Fold change (KD, to pVH/pVL) [4]: 11.1
- Kd [4]: 0.593 nM
- koff [4]: 0.0017 s⁻¹
- kon [4]: 2.86e+06 M⁻¹ s⁻¹
- Kd [5]: 0.736 nM
- Fold improvement (KD, to pVH/pVL) [6]: 10.5
- koff [6]: 0.00185 s⁻¹
- kon [6]: 2.51e+06 M⁻¹ s⁻¹
B1: #44_VH4VK4_H04/pVL (antibody, V domains shown)
VH: QVQLQESGPGLVKPSETLSLTCTVSGIDLSSYAMAWVRQAPGKGLEWIGCIDRRGGTFYASWVKGRFTISKDTSKTTVDLQMTSLTAEDTATYFCARDAGSFHPWGQGTLVTVSS
VL: DIQMTQSPSSLSASVGDRVTITCQASQSVYDNYLAWYQQKPGQPPKLLIHAASNLASGVPSRFSGSGSGTEFTLTISSLQPDDFATYYCLGEFSCTTTDCNVFGGGTKVEIK
notes: also called VH04/pVL; Clone VH4_H04
- binding result (Bovine serum albumin [1]): no binding (tested: 30 ng/ml (legend 1:100))

- binding result [7]: no binding (tested: supernatant 1:100)
- binding result (Bovine serum albumin [8]): no binding (tested: supernatant 1:100)
B2: #44 VH6VK1 humanised hIgG1 (antibody, V domains shown)
VH: QVQLQESGPGLVKPSETLSLTCTVSGIDLSSYAMSWVRQAPGKGLEWVSCIDRRGGTFYASWVKGRFTISRDNSKNTLDLQMTSLTAEDTATYYCARDSGAFDPWGQGTLVTVSS
VL: B1 VL with D1Q, Q3V, G58R, S64K, P81C, K108E, E110V
notes: also called VH6Vκ1

- inhibition of aggregated tau uptake into human astrocytes [2]: 39.1%
- inhibition of aggregated tau uptake into human iPSC-derived neurons [2]: 55%
- inhibition of monomeric tau uptake into human astrocytes [3]: 35.1%
- inhibition of monomeric tau uptake into human iPSC-derived neurons [3]: 71%
- Fold change (KD, to pVH/pVL) [4]: 5.77
- Kd [4]: 1.14 nM
- koff [4]: 0.00444 s⁻¹
- kon [4]: 3.9e+06 M⁻¹ s⁻¹
- Kd [5]: 1.53 nM
- Fold improvement (KD, to pVH/pVL) [6]: 5
- koff [6]: 0.00524 s⁻¹
- kon [6]: 3.43e+06 M⁻¹ s⁻¹
B3: #44_VH4VK4_H06/pVL (antibody, V domains shown)
VH: B1 VH with C50V, R53A, R54A, G56H, A99S, S101T, H103D
VL: B1 VL
notes: also called Clone VH4_H06; #44_VH4_H06
- binding result (Bovine serum albumin [1]): no binding (tested: 30 ng/ml (legend 1:100))
